Assay [1] concerns the target T1, C-terminal PP2Ac peptide Y307F, CGEPHVTRRTPDFFL (15-mer).
T1 construct: Non-carboxymethylated; Phe in place of Tyr307; Crosslinked to BSA in the Western blot; free or linked to BSA in the ELISA
T1 peptide: CGEPHVTRRTPDFFL
Kind of assay: Western blot of 100 ng BSA crosslinked with peptide, detected through 16B12. Here is the method:
100 ng of BSA crosslinked with peptides (L309: […] (SEQ ID NO:49), Y307F: […] (SEQ ID NO.50), pY307: […]pYFL (SEQ ID NO:51) or meL309: […]-CH₃) (SEQ ID NO:49) was separated by 10% SDS-PAGE and transferred to nitrocellulose membrane (0.2 μm, GE Healthcare). […] The membranes were blocked in 3% non-fatty dry milk (NFDM) in TBS-Tween for 1 h at RT and incubated with single clone hybridoma cell culture supernatant, clone 7C10-C5 diluted 1:100 in 0.5% NFDM in TBS-T (7C10 X63), recombinant single chain variable fragment of antibody 7C10-C5, undiluted (7C10 scFvs), recombinant bivalent single chain variable fragment 7C10-C5, undiluted (7C10 bi-scFvs) or single clone hybridoma cell culture supernatant, clone 1D7 (binding to non-carboxymethylated PP2Ac) 1:100 in 0.5% NFDM in TBS-T o/n at 4° C. After washing 3×5 min in TBS-T, blots incubated with recombinant antibodies were incubated with mouse anti-HA monoclonal antibody 16B12 (recognizing the hemagglutinin (HA) tag on the recombinant antibody), 1:10000 in 0.5% NFDM in TBS-T 2 h at room temperature. After washing 3×5 min in TBS-T, incubation with anti-mouse-HRP coupled secondary antibody for 1 h at RT and 3×10 min washes in TBS-T was performed. ECL was performed with GE Healthcare ECL reagents (RPN2106) mixed 1:3 with Clarity™ Western ECL Substrate, 500 ml #1705061 (Biorad). Signals were detected by exposure of X-ray films. […]

The target in assay [2] is T2, C-terminal PP2Ac peptides L309, Y307F, pY307, meL309 (Homo sapiens, UniProt P67775).
T2 construct: coated with C-terminal PP2Ac peptides either free or linked to BSA; BSA (carrier)
Kind of assay: ELISA with CGEPHVTRRTPDYFL peptides free or linked to BSA (scFv and recombinant 7C10-C5). The format is binding. To be noted: peptides free or linked to BSA. Here is the method: Nunc Medisorp 96-well ELISA flat-bottom plates were coated with C-terminal PP2Ac peptides either free or linked to BSA. Specifically, the peptides were: unmodified L309 (CGEPHVTRRTPDYFL) (SEQ ID NO:49), Y307F (CGEPHVTRRTPDFFL) (SEQ ID NO:50), pY307 (CGEPHVTRRTPDpYFL) (SEQ ID NO:51) or carboxymethylated meL309 (CGEPHVTRRTPDYFL-CH3) (SEQ ID NO:49), on the ELISA plate at 8 μg/ml in TBS (free) or 1 μg/ml in TBS (linked to BSA) at 4° C. overnight. After washing twice with TBS, the wells were incubated with 2% BSA in TBS for 1 h at RT. After washing once with TBS, the wells were incubated with single clone hybridoma cell culture supernatant, clone 7C10-C5 1:50 (7C10 X63), recombinant single chain variable fragment of antibody 7C10-C5, undiluted (7C10 scFvs), or recombinant bivalent single chain variable fragment of antibody 7C10-C5, undiluted (7C10 bi-scFvs). After washing 3× with TBS, wells incubated with recombinant antibodies were incubated with monoclonal antibody 16B12, 1:10000 (recognizing the hemagglutinin tag on the recombinant antibody) in 1% BSA TBS 1 h at room temperature. After washing 3× in TBS, incubation with anti-mouse-HRP coupled secondary antibody for 1 h at RT was performed. Bound antibodies were detected by colorimetric reaction with 3,3′,5,5′-Tetramethylbenzidine as substrate, and absorbance was measured at 450 nm. Values were normalized to meL309 which was arbitrarily set to 1. Average and standard deviation of N=3 experiments are shown.
Nunc Medisorp 96-well ELISA flat-bottom plates were coated with peptides either free or linked to BSA, L309 (CGEPHVTRRTPDYFL) (SEQ ID NO:49) or meL309 (CGEPHVTRRTPDYFL-CH3) (SEQ ID NO:49), on the ELISA plate at 0.5 μg/ml in TBS (free) or […] in TBS (linked to BSA) at 4° C. over night. After washing twice with TBS, the wells were incubated with 2% BSA in TBS for 1 h at RT. After washing once with TBS, the wells were incubated with single clone hybridoma cell culture supernatant, clone 7C10-C5 1:50 (7C10 X63), or recombinant antibody 7C10-C5 undiluted (rec 7C10). After washing 3× with TBS, incubation with anti-mouse-HRP coupled secondary antibody for 1 h at RT was performed. Bound antibodies were detected by colorimetric reaction with 3,3′,5,5′-Tetramethylbenzidine as substrate, and absorbance was measured at 450 nm. Values were normalized to meL309 incubated with 7C10 X63, which was arbitrarily set to 1. Average and standard deviation of N=3 experiments are shown (FIG. 30).

Assay [3] addresses T3, PP2Ac (Homo sapiens, UniProt P67775).
T3 construct: the carboxy-terminal methyl group was chemically removed from cellular PP2Ac; endogenous in cells; host or cells: HAP1 wild type, HAP1 Lcmt-1-KO, HEK293Trex / HEK293T
Kind of assay: Western blot of human cell lysates (HAP1, HEK293; NaOH treatment, Lcmt-1-KO). In kind it is binding. To be noted: HAP1, HEK293. Here is the method: NIH3T3 mouse fibroblasts and human embryonic kidney cells (HEK293Trex) were grown in DMEM+10% FCS+2 mM L-glutamine (Sigma, G2150)+100 units/ml Penicillin/0.1 mg/ml Streptomycin at 37° C. in a 7.5% CO2 atmosphere. HAP1 wild type and HAP1 Lcmt-1-KO cells (Leucine carboxyl methyltransferase 1 deleted by CRISPR/Cas9; Horizon Discovery, #C631 and #HZGHC004373c001) were grown in Iscove's Modified Dulbecco's Medium (IMDM, Thermo Fischer Scientific, Life Technologies #12440053) supplemented with 10% (v/v) Fetal Calf Serum (FCS) (Sigma #F7524, lot 104M3333), GlutaMAX™ (Thermo Fischer Scientific, Life Technologies #35050-38, lot 1895829), and Penicillin-Streptomycin solution (Sigma, #P4333, lot 125M4781V) in a 5% CO2 atmosphere. Of note, HAP1 is a near-haploid human cell line that was derived from the chronic myelogenous leukemia (CML) cell line KBM-7 (Carette (2011), Nature 477(7364):340-3). For cell lysis, exponentially growing cells were washed once with ice-cold PBS, once with ice-cold IP-Wash buffer (20 mmol/l Tris pH 8.0, 135 mmol/l NaCl, 10% glycerol) and lysed on the petri-dish in ice-cold IP-Lyse buffer (18 mmol/l Tris pH 8.0, 122 mmol/l NaCl, 9% glycerol, 1% w/v NP-40) for 20 min at 4° C. rocking. Lysed cells were transferred to Eppendorf 1.5 ml tubes and centrifuged for 15 min at 14,000 rpm at 4° C. in a Beckman & Coulter Microfuge 18 centrifuge. The protein concentration was determined with the Protein Assay Dye Reagent (Biorad, 500-0006) and measurement of absorbance at 595 nm in a Hitachi U-2000 spectrophotometer. […]
To test these antibodies in the western blot analysis with methylated and non-methylated full-length PP2Ac the methyl group was chemically removed from cellular PP2Ac by treating lysates of the human cell line, HAP1, with NaOH, as described in Example 2. […] In agreement with the results of the NaOH experiments, […] of PP2Ac were detected in HAP1 cells that lack the PP2A methyltransferase LCMT-1 indicating the preference of these antibodies for non-methylated PP2Ac (FIG. 22). […]
A general note: In western blotting, separated proteins are transferred to a membrane and probed.

T3 sequence (P67775 whole entry): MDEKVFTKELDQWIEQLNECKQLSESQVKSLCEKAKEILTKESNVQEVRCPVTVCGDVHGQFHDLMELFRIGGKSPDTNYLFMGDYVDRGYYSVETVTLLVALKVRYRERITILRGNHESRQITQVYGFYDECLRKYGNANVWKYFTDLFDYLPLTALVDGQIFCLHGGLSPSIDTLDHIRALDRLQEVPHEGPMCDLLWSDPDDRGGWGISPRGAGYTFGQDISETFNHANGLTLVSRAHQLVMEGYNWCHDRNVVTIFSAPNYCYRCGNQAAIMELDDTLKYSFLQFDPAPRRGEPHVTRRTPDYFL

B1: recombinant bivalent single chain variable fragment (scFv) of antibody 7C10-C5 (scFv)
scFv: DVLMTQTPLSLPVSLGDQASISCRSSQSIVHSNGNTYLEWYLQKPGQSPKLLIYKVSNRFSGVPDRFSGSGSGTDFTLKINRVEAEDLGVYYCFQGSHVPWTFGGGTKLEIKSSGGGGSGGGGGGSSRSSLDVQLQESGPGLVKPSQSLSLTCSVTGYSITSGYYWNWIRQFPGNKLEWMGYISYDGSNNYNPSLKNRISITRDTSKNQFFLKLNSVTTEDTATYYCAGRFAYWGQGTLVTVSAAKTTPPSVGSGSGSGSGSGSGSGSGSGSGSGSGSGSGSDVLMTQTPLSLPVSLGDQASISCRSSQSIVHSNGNTYLEWYLQKPGQSPKLLIYKVSNRFSGVPDRFSGSGSGTDFTLKINRVEAEDLGVYYCFQGSHVPWTFGGGTKLEIKSSGGGGSGGGGGGSSRSSLDVQLQESGPGLVKPSQSLSLTCSVTGYSITSGYYWNWIRQFPGNKLEWMGYISYDGSNNYNPSLKNRISITRDTSKNQFFLKLNSVTTEDTATYYCAGRFAYWGQGTLVTVSAAKTTPPSVTSGQAGQHHHHHHGAYPYDVPDYAS
notes: Two VL-linker-VH units joined by a (Gly-Ser)x15 linker, C-terminal 6xHis and HA tag; HEK293T supernatant, undiluted; Signal peptide (residues 1-22, before the first VL) left out by counting; also called 7C10 bi-scFvs; bivalent 7C10-C5 scFv
For B1, in assay [1], the binding result is given as “no binding (tested: undiluted supernatant)”.

B2: recombinant 7C10-C5: recombinant 7C10-C5 antibody with mIgCK light chain and mIgG2a heavy chain (SEQ ID NO:123, 125) (protein)
light: MDMRVPAQLLGLLLLWLSGARCDVLMTQTPLSLPVSLGDQASISCRSSQSIVHSNGNTYLEWYLQKPGQSPKLLIYKVSNRFSGVPDRFSGSGSGTDFTLKINRVEAEDLGVYYCFQGSHVPWTFGGGTKLEIKADAAPTVSIFPPSSEQLTSGGASVVCFLNNFYPKDINVKWKIDGSERQNGVLNSWTDQDSKDSTYSMSSTLTLTKDEYERHNSYTCEATHKTSTSPIVKSFNRNEC
heavy: MYRMQLLSCIALSLALVTNSDVQLQESGPGLVKPSQSLSLTCSVTGYSITSGYYWNWIRQFPGNKLEWMGYISYDGSNNYNPSLKNRISITRDTSKNQFFLKLNSVTTEDTATYYCAGRFAYWGQGTLVTVSAAKTTAPSVYPLAPVCGDTTGSSVTLGCLVKGYFPEPVTLTWNSGSLSSGVHTFPAVLQSDLYTLSSSVTVTSSTWPSQSITCNVAHPASSTKVDKKIEPRGPTIKPCPPCKCPAPNLLGGPSVFIFPPKIKDVLMISLSPIVTCVVVDVSEDDPDVQISWFVNNVEVHTAQTQTHREDYNSTLRVVSALPIQHQDWMSGKEFKCKVNNKDLPAPIERTISKPKGSVRAPQVYVLPPPEEEMTKKQVTLTCMVTDFMPEDIYVEWTNNGKTELNYKNTEPVLDSDGSYFMYSKLRVEKKNWVERNSYSCSVVHEGLHNHHTTKSFSRTPGK
modifications: Amino acid sequence of the recombinant 7C10-C5 light chain; Amino acid sequence of the recombinant 7C10-C5 heavy chain
Consider B2, for which, in assay [2], the “recognition of meL309 versus non-carboxymethylated peptides” value is recorded as “Specific for the α-Carboxymethylated PP2Ac”. Further, the “detection of PP2Ac in untreated versus NaOH treated cell lysates” value in assay [3] is recorded as “only detected methylated PP2Ac in the untreated cell lysates but not in the NaOH treated lysates”.

B3: recombinant monovalent single chain variable fragment (scFv) of antibody 7C10-C5 (scFv)
scFv: DVLMTQTPLSLPVSLGDQASISCRSSQSIVHSNGNTYLEWYLQKPGQSPKLLIYKVSNRFSGVPDRFSGSGSGTDFTLKINRVEAEDLGVYYCFQGSHVPWTFGGGTKLEIKSSGGGGSGGGGGGSSRSSLDVQLQESGPGLVKPSQSLSLTCSVTGYSITSGYYWNWIRQFPGNKLEWMGYISYDGSNNYNPSLKNRISITRDTSKNQFFLKLNSVTTEDTATYYCAGRFAYWGQGTLVTVSAAKTTPPSVTSGQAGQHHHHHHGAYPYDVPDYAS
notes: VL - 19 aa linker - VH - 8 aa of CH1 - 6xHis - HA tag; secreted into HEK293T supernatant, used undiluted; also called 7C10 scFvs; monovalent 7C10-C5 scFv
B3: the binding result in assay [1] was “no binding (tested: undiluted supernatant)”.
